The target of one assay is T1, Kap114pΔ(848-875) (S. cerevisiae, UniProt P53067 1-1004, Δ848-875).
T1 construct: this construct is not in the list of mutants of the cloning methods; also called Δ(a.a.848-875); GST-Kap114p (Δ848-875); source: E. coli Rosetta, purified (GST resin, MonoQ, Superdex 200)
T1 sequence (looked up): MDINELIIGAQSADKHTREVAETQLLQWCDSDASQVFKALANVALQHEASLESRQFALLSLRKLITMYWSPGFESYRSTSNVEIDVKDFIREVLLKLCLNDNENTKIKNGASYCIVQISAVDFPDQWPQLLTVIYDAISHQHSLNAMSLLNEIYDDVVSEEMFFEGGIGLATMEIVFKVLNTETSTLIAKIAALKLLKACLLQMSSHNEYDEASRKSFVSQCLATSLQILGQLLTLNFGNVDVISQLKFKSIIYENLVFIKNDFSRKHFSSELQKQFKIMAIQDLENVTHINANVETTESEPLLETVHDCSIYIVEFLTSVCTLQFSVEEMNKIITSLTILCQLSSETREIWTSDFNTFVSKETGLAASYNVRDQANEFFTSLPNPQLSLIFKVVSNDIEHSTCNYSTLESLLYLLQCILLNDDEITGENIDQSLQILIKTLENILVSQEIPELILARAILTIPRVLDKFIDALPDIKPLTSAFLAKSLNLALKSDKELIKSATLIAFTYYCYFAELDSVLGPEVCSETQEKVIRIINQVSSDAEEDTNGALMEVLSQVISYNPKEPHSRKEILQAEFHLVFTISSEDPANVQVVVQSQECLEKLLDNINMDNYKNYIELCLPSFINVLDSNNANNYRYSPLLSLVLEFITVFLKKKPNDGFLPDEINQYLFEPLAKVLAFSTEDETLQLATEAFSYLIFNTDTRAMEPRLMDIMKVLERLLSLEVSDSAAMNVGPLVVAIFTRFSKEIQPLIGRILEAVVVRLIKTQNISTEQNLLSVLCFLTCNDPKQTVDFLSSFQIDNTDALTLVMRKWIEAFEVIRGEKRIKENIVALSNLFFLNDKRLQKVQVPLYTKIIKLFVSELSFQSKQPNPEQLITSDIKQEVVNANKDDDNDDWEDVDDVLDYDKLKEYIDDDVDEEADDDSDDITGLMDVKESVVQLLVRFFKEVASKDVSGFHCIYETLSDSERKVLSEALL
As to the kind of experiment: ITC; MicroCal iTC200, 25 °C, 20 mM HEPES pH 7.4, 150 mM NaCl; high concentration: 50 µM wild type or mutant Kap114p in the sample cell, 500 µM wild type or mutant yTBPC in the syringe; triplicate. The following applies: both partners purified. Background: ITC needs no label: the signal is the heat of the interaction.

In another assay the target is T2, Kap114pΔ(Y933) (S. cerevisiae, UniProt P53067 1-1004, ΔY933).
T2 construct: Kap114p, S. cerevisiae, full length with residue Y933 deleted; also called GST-Kap114p (Δ933); source: E. coli Rosetta, purified (GST resin, MonoQ, Superdex 200)
T2 sequence (looked up): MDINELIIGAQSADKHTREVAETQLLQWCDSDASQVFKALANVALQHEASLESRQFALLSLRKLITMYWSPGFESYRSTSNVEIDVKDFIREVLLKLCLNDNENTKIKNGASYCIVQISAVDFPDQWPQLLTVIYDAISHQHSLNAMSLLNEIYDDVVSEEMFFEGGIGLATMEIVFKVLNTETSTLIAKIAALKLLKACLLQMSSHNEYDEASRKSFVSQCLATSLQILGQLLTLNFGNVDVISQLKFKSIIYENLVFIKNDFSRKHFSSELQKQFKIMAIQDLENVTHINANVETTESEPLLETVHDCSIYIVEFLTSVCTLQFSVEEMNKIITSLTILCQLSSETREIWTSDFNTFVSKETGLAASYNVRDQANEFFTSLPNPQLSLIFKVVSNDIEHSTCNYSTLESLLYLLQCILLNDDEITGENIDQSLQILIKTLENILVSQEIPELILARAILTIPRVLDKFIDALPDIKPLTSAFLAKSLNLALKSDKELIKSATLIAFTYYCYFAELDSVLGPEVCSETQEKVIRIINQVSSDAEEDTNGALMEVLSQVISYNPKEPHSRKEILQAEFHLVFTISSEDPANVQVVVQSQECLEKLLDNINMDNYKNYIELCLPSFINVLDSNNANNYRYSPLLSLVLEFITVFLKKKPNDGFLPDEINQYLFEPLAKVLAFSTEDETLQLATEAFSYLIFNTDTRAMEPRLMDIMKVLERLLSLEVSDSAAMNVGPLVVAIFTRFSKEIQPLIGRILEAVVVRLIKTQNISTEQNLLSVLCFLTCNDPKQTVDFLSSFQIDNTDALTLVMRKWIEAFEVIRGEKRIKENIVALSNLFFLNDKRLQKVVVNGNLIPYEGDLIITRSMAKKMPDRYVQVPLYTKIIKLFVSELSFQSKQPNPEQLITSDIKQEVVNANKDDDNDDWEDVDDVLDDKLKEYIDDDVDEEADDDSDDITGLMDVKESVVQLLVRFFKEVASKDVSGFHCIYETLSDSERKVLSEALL
The assay is described as above. The following applies: both partners purified.

For orientation: Kd means the free concentration of one partner at which half of the binding sites on the other are occupied at equilibrium, for simple one-to-one binding. Read a high Kd as a looser complex.

B1: yTBP^C wild type (core domain of yeast TATA-box binding protein, a.a. 61-240) (domain or fragment, S. cerevisiae, UniProt P13393 61-240, looked up)
chain: SGIVPTLQNIVATVTLGCRLDLKTVALHARNAEYNPKRFAAVIMRIREPKTTALIFASGKMVVTGAKSEDDSKLASRKYARIIQKIGFAAKFTDFKIQNIVGSCDVKFPIRLEGLAFSHGTFSSYEPELFPGLIYRMVKPKIVLLIFVSGKIVLTGAKQREEIYQAFEAIYPVLSEFRKM
notes: modified pET28a, 6xHis tag followed by a PreScission site; also called yTBPC WT; His-yTBP (61-240); source: E. coli Rosetta, purified (Ni-NTA, HiTrap SP, Superdex 75); not shown: His6, N-terminal, cleaved
As for B1, the Kd in the assay with Kap114pΔ(848-875) amounted to 1.7 nM; with Kap114pΔ(Y933) it was 7.7 nM.

The values above are taken from article PMC10491584, “Structural convergence endows nuclear transport receptor Kap114p with a transcriptional repressor function toward TATA-binding protein” (Nature Communications, 2023).
